From paper PMC3466309, “Initial Characterization of the Pf-Int Recombinase from the Malaria Parasite Plasmodium falciparum” come the findings set out here.

One data set concerns the target T1, His6-Pf-Int-C192 (Plasmodium falciparum 3D7, UniProt C0H5A8 192-490).
T1 sequence: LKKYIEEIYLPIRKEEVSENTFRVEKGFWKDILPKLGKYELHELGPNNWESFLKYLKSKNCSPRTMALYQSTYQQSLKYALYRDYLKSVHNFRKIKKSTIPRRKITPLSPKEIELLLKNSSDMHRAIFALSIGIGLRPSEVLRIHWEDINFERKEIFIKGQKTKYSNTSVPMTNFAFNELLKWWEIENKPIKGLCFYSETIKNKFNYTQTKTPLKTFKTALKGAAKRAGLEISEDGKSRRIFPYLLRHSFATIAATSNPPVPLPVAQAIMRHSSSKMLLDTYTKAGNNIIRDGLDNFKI
As to the kind of experiment: EMSA supershift; 0.04 or 0.2 uM protein; anti-Pf-Int disrupts, anti-His5 supershifts; EMSA: 50 mM Tris pH 8, 150 mM NaCl, 0.1 mM EDTA, 5 mM DTT, 50 ug/ml BSA, 2% glycerol, 0.5% Tween 20, 10 ug/ml poly(dI-dC) unless omitted, 10 nM DNA, 20 min at 20 C; 5% gel in 0.5x TBE at 18 C. As to conditions: protein: recombinant; tags: N-terminal His6; label: 5'-DY682 on strand 1; blunt. In general terms: A gel shift assay detects complexes by their altered migration in electrophoresis.

The target of another data set is T2, Pf-Int-C192 (Plasmodium falciparum 3D7, UniProt C0H5A8 192-490).
T2 sequence: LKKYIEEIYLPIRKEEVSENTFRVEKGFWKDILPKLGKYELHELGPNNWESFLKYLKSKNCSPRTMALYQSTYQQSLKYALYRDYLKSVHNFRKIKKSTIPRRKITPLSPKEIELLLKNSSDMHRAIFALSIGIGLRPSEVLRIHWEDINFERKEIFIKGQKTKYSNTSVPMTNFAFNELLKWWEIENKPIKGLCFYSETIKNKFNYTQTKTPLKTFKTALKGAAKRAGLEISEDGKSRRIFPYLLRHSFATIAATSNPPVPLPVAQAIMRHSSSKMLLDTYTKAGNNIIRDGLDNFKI
Nature of the data set: EMSA; 10 ug/ml poly(dI-dC); max shift at ~15-fold higher protein/DNA ratio than without; EMSA: 50 mM Tris pH 8, 150 mM NaCl, 0.1 mM EDTA, 5 mM DTT, 50 ug/ml BSA, 2% glycerol, 0.5% Tween 20, 10 ug/ml poly(dI-dC) unless omitted, 10 nM DNA, 20 min at 20 C; 5% gel in 0.5x TBE at 18 C. As to conditions: protein: recombinant; label: 5'-DY682 on strand 1; blunt.

The target of another data set is T3, Pf-Int-C162 (Plasmodium falciparum 3D7, UniProt C0H5A8 162-490).
T3 sequence: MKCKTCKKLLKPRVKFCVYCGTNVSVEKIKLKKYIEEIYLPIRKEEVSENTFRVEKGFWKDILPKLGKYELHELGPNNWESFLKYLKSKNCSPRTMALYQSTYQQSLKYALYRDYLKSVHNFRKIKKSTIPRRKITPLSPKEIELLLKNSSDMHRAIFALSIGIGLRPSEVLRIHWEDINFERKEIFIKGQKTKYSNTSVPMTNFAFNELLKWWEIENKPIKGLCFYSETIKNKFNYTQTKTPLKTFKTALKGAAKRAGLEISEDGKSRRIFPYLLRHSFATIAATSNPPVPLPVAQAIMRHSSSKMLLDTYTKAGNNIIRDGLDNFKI
Nature of the data set: EMSA; 10 ug/ml poly(dI-dC); EMSA: 50 mM Tris pH 8, 150 mM NaCl, 0.1 mM EDTA, 5 mM DTT, 50 ug/ml BSA, 2% glycerol, 0.5% Tween 20, 10 ug/ml poly(dI-dC) unless omitted, 10 nM DNA, 20 min at 20 C; 5% gel in 0.5x TBE at 18 C. To be noted: protein: recombinant; tags: N- or C-terminal His6 versions; label: 5'-DY682 on strand 1; blunt.

B1: Selex8 (dsDNA)
DNA 1: CAAACACACTGTGCGCGCGTCG
DNA 2: CGACGCGCGCACAGTGTGTTTG
Regarding B1, the binding result with His6-Pf-Int-C192 is reported as “binds”; with Pf-Int-C192 it was “binds”; in the data set with Pf-Int-C162 it was “no binding”.
